Experimental findings from PMC9814621, “Nanoscopic investigation of C9orf72 poly-GA oligomers on nuclear membrane disruption by a photoinducible platform” (Communications Chemistry, 2021) are described below.

Data set [1] concerns the molecule itself. In words: fluorescence lifetime imaging microscopy (self-quenching); SH-SY5Y cells treated with 1 uM ADP-2 and photoinitiated; fixed 2, 12 and 24 h after UV.
Data set [2] deals with the molecule itself. In words: transmission electron microscopy; time course of the probe solution with or without irradiation (ADP-1 50 uM; 365 nm, 32 mW/cm^2, 1 min).

Ends that are not written are not given here.

B1: Alexa Fluor 488-labelled GA DPRs fragment photoreleased from ADP-2 [Alexa Fluor 488-cysteine-(glycine-alanine)12] (peptide)
peptide: C(Alexa Fluor 488 C5 maleimide)GAGAGAGAGAGAGAGAGAGAGAGA
notes: N-terminal cysteine (labelled) followed by 12 glycine-alanine repeats; poly-GA dipeptide repeat of the C9orf72 repeat expansion; also called AF-488-labeled GA DPRs; ADP-2-derived GA DPRs; source: also released inside SH-SY5Y cells treated with ADP-2
Consider B1, for which the binding result in data set [1] is listed as “binds”.

B2: GA DPRs fragment photoreleased from ADP-1 [cysteine-(glycine-alanine)12] (peptide)
peptide: CGAGAGAGAGAGAGAGAGAGAGAGA
notes: N-terminal cysteine followed by 12 glycine-alanine repeats; poly-GA dipeptide repeat translated from the G4C2 repeat expansion of C9orf72 (not part of the C9orf72 protein itself); also called (GA)12; ADP-1-derived GA DPRs; source: synthetic peptide (Fmoc chemistry, HPLC purified), released from ADP-1 by 365-nm light; also released inside SH-SY5Y cells treated with ADP-1
In the case of B2, in data set [2], the binding result is recorded as “binds”.
